Results published in the supplement of paper PMC12764529.
± gives the half width of the 95% confidence interval.

Legend:
[1] = folding stability dG unfold from trypsin proteolysis; higher = more stable
In short: (§1)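 Bayesian fitting of sequencing counts gave K50 for each design. Unfolding free energy followed by setting this against a sequence-predicted unfolded-state K50 and a shared folded-state K50, either per protease or with trypsin and chymotrypsin combined. The designs, under 80 residues and lacking cysteine, were digested in a PA-tagged cDNA display format at 11 threefold-diluted protease concentrations and without protease, and only those with AlphaFold2 dimer inter-PAE above 15 were kept.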

[2] = folding stability dG unfold from chymotrypsin proteolysis; higher = more stable
In short: as §1

[3] = folding stability dG unfold (combined trypsin and chymotrypsin); higher = more stable
In short: as §1

| Sequence | folding stability dG unfold [1] | folding stability dG unfold [2] | folding stability dG unfold [3] |
| --- | --- | --- | --- |
| SAGGSAKPEPIKIEIGPGGNRFKATFPNGDEADVDVVKDGDKTYLLITVTSPDGKPRPFKIPLEKLSAGGSA [r15_941_TrMRF] | 1.76 ± 0.042 kcal/mol | 2.24 ± 0.023 kcal/mol | 2.1 ± 0.05 kcal/mol |
| SAGGSAKRYFIMIDIRYPGDGKEIYPLVIPIPPGEPISIEDILDEIGFPPENADNVDIEIHTFRAKSAGGSA [r15_665_TrROS] | 1.56 ± 0.078 kcal/mol | 1.57 ± 0.14 kcal/mol | 1.51 ± 0.22 kcal/mol |
| SAGGSAKSIKAEELAKEIADLMQERNPNWRVEIEPQPGPGPMITVKIYHRDPNNGDQQPINTFTIRSAGGSA [r15_682_TrROS] | 0.502 ± 0.099 kcal/mol | 0.188 ± 0.15 kcal/mol | 0.442 ± 0.15 kcal/mol |
| SAGGSAKTIKIWIPVKGMTPEMLEEIARDILEELGMKVDIEPHPGDGYIEVTFKLPGKDIEIIIPWSAGGSA [r15_168_TrROS] | 2.04 ± 0.062 kcal/mol | 3.04 ± 0.1 kcal/mol | 2.61 ± 0.16 kcal/mol |
| SAGGSAKTKTITLKIKIVDPKTNKVYEFEIKIEVELTLDKNGKLTAKIKKIEIKAPKNSPLLKKLLSAGGSA [r15_258_TrROS_Hall] | 2.57 ± 0.063 kcal/mol | 3.18 ± 0.041 kcal/mol | 2.68 ± 0.24 kcal/mol |
| SAGGSAKVIAVPSLEEALKLAEEAAKEGKDIVVLFPDNRLLVVEVKPAPDDKPVLKLKVFEIPPELSAGGSA [r15_761_TrMRF] | 0.47 ± 0.049 kcal/mol | 0.974 ± 0.072 kcal/mol | 0.767 ± 0.15 kcal/mol |
| SAGGSAKWELSIWIPAPGMTPDKARELARDIAREFAQPGWKVKDIEVEPVNPDENVYRGTVTIEPPSAGGSA [r15_96_TrROS] | 0.951 ± 0.04 kcal/mol | 1.82 ± 0.11 kcal/mol | 1.49 ± 0.13 kcal/mol |
| SAGGSALAEKAKELALEKGYDPVKVTYDPKTGTLTMTAKPPGGKEVKMTFTIDEDTITITTTPLTKSAGGSA [r15_561_JUSTAS] | 0.996 ± 0.033 kcal/mol | 2.95 ± 0.078 kcal/mol | 2.49 ± 0.16 kcal/mol |
| SAGGSALDPDDLEKVTIEFMFYNPNGNLLYEMTLEIYPDDGVIKMEHKQRRPGEPQKVTMEFPFDPSAGGSA [r15_278_TrROS] | 1.63 ± 0.29 kcal/mol | 1.67 ± 0.18 kcal/mol | 1.73 ± 0.28 kcal/mol |
| SAGGSALPALAERFPDAEIEPVGDDGTSVTYRFRFPGGDYLLVTVPFLPGTTEAVVDIEWVPRDALSAGGSA [r15_547_TrMRF] | 1.68 ± 0.051 kcal/mol | 2.628 ± 0.012 kcal/mol | 2.35 ± 0.051 kcal/mol |
| SAGGSALPDIEVEELVRRLLELLEEDQPFRIVVFPPGGRWLTLDELLNVPAEEIPDLVVLVFVPDLSAGGSA [r15_144_TrMRF] | 3.04 ± 0.091 kcal/mol | 3.49 ± 0.06 kcal/mol | 3.3 ± 0.088 kcal/mol |
| SAGGSALTLNDKSLIPKPFPKKKAIVDVAVPLPPNLTLEEALEVAEAIANNLLKAGKIDEATVAIYSAGGSA [r15_450_TrMRF] | -0.0583 ± 0.11 kcal/mol | 0.151 ± 0.15 kcal/mol | 0.108 ± 0.091 kcal/mol |
| SAGGSALVIKKVEPNKGYLVFESKEDDKPIVRVKLETLVAALEEDRIPPALRRLLAENPDQVFNPVSAGGSA [r15_359_TrMRF] | 2.22 ± 0.12 kcal/mol | 1.75 ± 0.25 kcal/mol | 1.9 ± 0.21 kcal/mol |
| SAGGSALYIPPGTEHTVLIKLKDDDRYYEAKVTRVYPTSIEVEVEDPLTGEKKRYTINATDIELGDSAGGSA [r15_381_TrMRF] | 2.14 ± 0.12 kcal/mol | 2.24 ± 0.07 kcal/mol | 2.18 ± 0.18 kcal/mol |
| SAGGSAMAIFTVTPPDGVPVTERYSFTTPEEVEAAFAAAKAALPPGTALSVTLVPEEEVAAGRPLLSAGGSA [r15_469_JUSTAS] | 0.386 ± 0.027 kcal/mol | 1.59 ± 0.043 kcal/mol | 1.23 ± 0.034 kcal/mol |
| SAGGSAMEIEVEKNEDGTVTIRFRDKETGEEIEIEIEVEPGMTEEEVREKAEELAEELKKKGIEIESAGGSA [r15_1022_TrROS_Hall] | 2.82 ± 0.19 kcal/mol | 2.73 ± 0.19 kcal/mol | 2.89 ± 0.23 kcal/mol |
| SAGGSAMETIELKLEDGSTLTIERDPENPNTLTITFEDGRKITVTADSAEEALKKALELAKEGKLPSAGGSA [r15_38_TrROS_Hall] | 4.36 ± 0.33 kcal/mol | 4.58 ± 0.16 kcal/mol | 4.6 ± 0.17 kcal/mol |
| SAGGSAMIEEKLIEIPPIPVPYPDGSVQKVPVLVEETVELKPFIDPNTDKTSTAKTVTKRKVIFPSSAGGSA [r15_884_JUSTAS] | -0.255 ± 0.21 kcal/mol | 0.76 ± 0.084 kcal/mol | 0.379 ± 0.15 kcal/mol |
| SAGGSAMIELEIKLPKEEAEKIAEELAKKLAEELGLEVKVVDVEIEYDPETDEVTIRVKIEVEPEPSAGGSA [r15_70_TrROS_Hall] | 2.68 ± 0.15 kcal/mol | 1.98 ± 0.1 kcal/mol | 2.48 ± 0.24 kcal/mol |
| SAGGSAMIITFDKKTGKLTIYNKETGKKIEAEITKIEKIPEDKKYVKIKIKNKKTKKEFEFIFKIKSAGGSA [r15_209_TrROS_Hall] | 2.57 ± 0.16 kcal/mol | 4.39 ± 0.1 kcal/mol | 3.81 ± 0.38 kcal/mol |
| SAGGSAMIVTEDPNGVLTTTENGKVTTTTVTPVPRPDPFSDKTFTEYVVTTTTTPVAPSPITPNTLSAGGSA [r15_515_JUSTAS] | 1.26 ± 0.032 kcal/mol | -0.0422 ± 0.081 kcal/mol | 0.823 ± 0.046 kcal/mol |
| SAGGSAMKEIEINGYKVRIVKIDEKTGKITIYLYPNASEEMKEKVAELLKELGFEIEVEEVSPEELSAGGSA [r15_570_TrROS_Hall] | 3.4 ± 0.28 kcal/mol | 3.53 ± 0.14 kcal/mol | 3.44 ± 0.16 kcal/mol |
| SAGGSAMKIKPGETVTIKVKNKETGEWFEAKIVKVDEEKGEIEIEVEVNGKKYTFTIPAEDIEIVESAGGSA [r15_381_TrROS_Hall] | 1.87 ± 0.33 kcal/mol | 3.12 ± 0.077 kcal/mol | 2.89 ± 0.29 kcal/mol |
| SAGGSAMKIKRDNGKVRIEIDFPPEMKNPERMLMNIRSAINENPNKPIKVTMPPGHREWAKRLLKESAGGSA [r15_89_TrROS] | 0.219 ± 0.19 kcal/mol | -0.686 ± 0.44 kcal/mol | -0.248 ± 0.24 kcal/mol |
| SAGGSAMKITITVEKKEDGTYRVTIEIDGKKIEIEMSVEDLKKKLEELAKELFPDKPIKVEVKPVPSAGGSA [r15_925_TrROS_Hall] | 2.87 ± 0.13 kcal/mol | 4.13 ± 0.36 kcal/mol | 3.83 ± 0.2 kcal/mol |
| SAGGSAMKITLKPDGTLEIELPDGVKITITRNANGEVTITITYPDGETKTFPAGMTLEQVLAELLASAGGSA [r15_371_TrROS_Hall] | 3.56 ± 0.072 kcal/mol | 3.3 ± 0.053 kcal/mol | 3.42 ± 0.051 kcal/mol |
